test: yeast display, Sf9 membrane polyspecificity reagent, FACS + sequencing; frameworks hold sequencing errors
In short: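 Galactose-induced (36–48 hours) yeast carrying a synthetic nanobody display library were exposed to 10% biotinylated, detergent-solubilized Sf9 membrane reagent at 4 °C for 1 hour. FACS followed streptavidin microbead enrichment, using low and high (top ~1%) gates for expression (anti-HA) and reagent binding (streptavidin). Colony PCR, MiSeq 2 × 250 sequencing and CDR-length filtering followed. Labels for polyreactivity reflect the gate of origin.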

Sequence	polyreactivity (PSR sort gate)
QVQLVESGGGLVQAGGSLRLSCAASGLTFWDYAMGWYRQAPGKETELVAAISNDDSTYADSVKGRFTISRDNAKNTVYLQMNSLKPEDTAVYYCAAQSYYTWPEMGYWGQGTQVTVSS	low polyreactivity
QVQLQENGGGLVQAGGSLRLSCAASGTILYSLGMGWYRQAPGKRREFVASITWGTTTNYAESVKGRFTISRDNAKNSVYPQMNSLKPEDTAVYYCAAPPFGDSSYHYWGQGTQVTVSS	low polyreactivity
QVQLVESGGGLVQAGGSLRLSCAASGFTFRHYAMGWYRQAPGKERELVARIRGGGVSTYYADSVKGRFTISRDNAKNTVYLQMNSLKPEDTAVYYCNAVYESWWGDYDYWGQGTQVTVSS	high polyreactivity
QDQHVESGGGLVQAGGSLRLSCAASGFIFSQYAMGWYRQAPGKERELVAAISSGSTYADSVKGRFTISRDNAKNTVYLQMNSLKPEDTAVYYCAVDYHQAWPSADYWFEYDYWGQGTQVTVSS	low polyreactivity
QVQLVESGGGLDQAGSSLSLSCDSSGRIFYGYAMGWYRQEPGKERELVAAISWRGGRTYYADSVKGRFTISRDNAKNTVYLQMNRLIPEDTAVYYCNKDFPPQGKLLNMYYWGQGTQVTLSS	high polyreactivity
QVQLGESGGGLVQAGGSVRLICAASGGIFEWNAMGWYRQAPGKERELDAAISNTGGSTSYADSVKGRFTISRDNAMNSVYLQMNCLKPEDTAVYYCNRFPPRRYYARYYSWGQGTQVTVSS	high polyreactivity
QVQLVESGGGLVQAGGSLRLSCPASGRTFRYYAMGWYRQAPGKERELVAAITANGGSTFYADSVKGRFTISRDNAKNTVYLQMNSLKPEDTAVYYCAARFYTSSRYNYWGQGTQVTVSS	high polyreactivity
QLQLVESGGGLVQAGGSLRLSCAASGNTFYGYTMGWYRQAPGTERELVAVISSSGGRTNYADSVKGRFTISRDNAKNTVYLQMNSLKPEDTAVYYCAARSSRLPHIYGYWGQGTQVTVSS	low polyreactivity
QVQLVESGGGLVQAGGSLRLSCAASGSTINSYTKGWYSQAPRKERELVAAISGSSGRTYDADSVKGRFTISRDNAKNTVYLQMNSLKPEDTAVYYGAAVDLYGGSDYWGQGTQVTVSS	high polyreactivity
QVQLVESGGGLVQAGSSLRISCAASGRTLIYYAMGWYRQAPGKEREMVASINRRGDSTYYADSVKGRFTISRYNAKNTVYLQMYSLKPEDTAVYYCAKVLYGGYPENRYFVGWGREYLGQGTQVTVSS	high polyreactivity
QVQLVESGVGLVQAGGSLRLSCAASGLTFVDNVMGWYRQAPRTERELVADISSSGGSTYADSVKGRFTISRDNAKNTVYFQMNSLKPEDTAVYYCAAGDDSSGEQVDYWGQGTQVTVSS	low polyreactivity
QVQLVESGGGLVQAGGSLRLSCPASGRTSVINAMGWYRQAPGKETELVATITWSAASTYYADSVKGRFTISRDNAKNTVYLQMNSLKPEDTAVYYCATDSAQYGYDYWGQGTQVTVSS	low polyreactivity
QVQLVESGGGLVQAGGSLRLSCAASGSTLPTNAMGWYRQAPGKEREFVAAISDNGGSTYYADSVKGRFTISRDNAKNTVYLQMNSLKPEDTAVYYCAADNFAPEFYYWGQGTQVTVSS	low polyreactivity
QVQIVESGGGLVQAGGSLRLSCAASGSIFYRYAMGWYRQAPGKERQLVAAISSGGTTSYADSVKGRFTISRDNAKNTVYLQMNSLKPEDTAVYYCAAFAYGYRYKTYDYWGQGTQVTVSS	high polyreactivity
QVQLVESGGGLVQAGGSLRLSCAASGRTLVYYAMGWYRQAPGKERELVAAITWRGGRTYYADSVKGRFTISRDNAKNTVYLQMNSLKPEDTAVYYCAKDGGHTGDYWGQGTQVTVSS	low polyreactivity
QVQLVESGGGLVQAGGSLRLSCAASGITFGVYGKGWYRQEPGKERELVAAISRTGGSTYYADSVKGRFTISRDNAKNTVYLQMNSLKPEDTAVYYCNARPVGRVIGDYWGQGTQVTVSS	high polyreactivity

Sequence	polyreactivity (PSR sort gate)
QVQLVESGGGLVQAGGSLRLSCAASGRTFYANTMGWYRPAPGKERELVASITSRGTSTYYADSVKGRFTISRDNAKNTVYLEMNSLKPEDTAVYYCAKAFIAPQYAWGGDYWGQGTQVTVSS	high polyreactivity
QVQLVESGGGLVQAGGSLRLSCAASGFIFLYYAMGWYRPAPGKEGELVAAISRSGGRTYYADSVKGRFTISRDNAKNTVYLQMNSLKPEDTAGYYCAARSARTSSFPIFYYWGQGTQVTVSS	high polyreactivity
PLQLVESGGGLVQAGGSLRLSCAASGTIFVQTDRGWYRQAPGKERELVAAISSGSSTNYADSVNGRFTISRDNAKNTVYLQMNSLKPEDSAAYYCAVTSPYSQGYSYWGADSRDYWGQGTQVTVSS	low polyreactivity
QVQLVESGGGLVQAGGSLRLSCAASGRIFERYAMGWYRQAPGKERELVAGISISGGGTYYADSVKGRFTISRDNAKNTVYLQMNSLKPEDTAVYYCAATFPREEYGYWGQGTQVTVSS	low polyreactivity
QVQLVESGGGLVQAGRSLRLSCAASGFIFKSYAMGWYRQAPAKERELVAAISFSGGSTYYADSVKGLFTISRDNAKNTVYLQMNSLKPEDSAVYYCAADPRNGEYYYWGQGTQVTVSS	high polyreactivity
QVQLVESGGGLVQAGGSLRLSCAASGSTFYGYALGWYRQAPGKERELVAAITRSGGSTYYADSVKGRFTISRDNAKNTVYLQMNSLKPEDTEVYYCNKYGYKGGVGYDYWGQGTQVTVSS	high polyreactivity
QVQLVESGGGLVQAGGSLRLSCAASGSTFSRNTMGWYRQAPGKERELVAAISKSGGRTYYADSVKGRFTISRDNAKNTVYLQMNSLKPEDTAVYYCNAAVYAYASDYWGQGTQVTVSS	high polyreactivity
QVQHVESGRGLVQAGGRLRLSCADSGMTFGYSAMGWYRPAPGKDRELVAAISGTAGDTYYADSVKGRFTISRDNAKNTVYLQMNSLKAEVTAVYYCAKVKRWFGVTIELDYWGQGTQGTVSS	low polyreactivity
QVQLVESGGGLVQAGGSLRLSCAASGSIFVWYAMGRYRQAPGQERELVARITSGGRTNYADSVKGRFTISRDNAKNTVYLQMISLKPEDTAVYYCAAGRVSWSPDYYWGQGTQGTVSS	high polyreactivity
QVHLVESGGGLVQAGGSLRLSWAASGFIFKNYAMGWYRQAPGKERELVAVISRSGGSTYYADSVKGRFTISRDNAKNTVYLQMNSLKPEDTAVYYCNADRWKSGYWRYDYWGQGTQVTVSS	low polyreactivity
QDQLVESGGGLVQAGGSLRLSCAASGSMLVNNAMGCYRQAPGKERELVAASSKSTGRTYYADSVKGRFTISRDNAKNTVYLQMNSLKPVDTAVFYCYALTHPDKFVYWGQGTQVTVSS	high polyreactivity
QVQLVESAGGLVQAGGSLRLSCAASGSTFQSYAMGWYRQAPGKDRELVAAISSGGITYYADSVKGRFTISRDNAKNTVYLQMTSLIPEDTAVYYCAKVPTYLIYNRYSRYDYWGQGTQVTVSS	low polyreactivity
QVQLVESGGGLVQAGGSLRLSCAASGFTFDYYALGWYRQAPGKERELVAAISRGGSTYYADSVKGRFTISRDNGKNTFYLQMNSLKPEDTAVYYCAVSAGKRRLDYWGQGTQVTVSS	high polyreactivity
QVHLVESGGGLVQEGGSLRLSFAASGSSFIWYGMGWYRQAPGKARELVATITSSGSTNYADSVKGRFTISRDNAKNTVYLQMNSLKPEDTAVFYCAKRGPLRHYSWGQGTQVTVSS	low polyreactivity
QVQLVESGGGLVQAGGSLRLSCAASGRTFPNNAMGWYRQAPGKERELVAAISSGSSTDYADSVKGRFTISRDNAKNTVYLQMNSLKPEDTAVYYCNAGDYTYPGSPWPGYAYDYWGQGTQVTVSS	low polyreactivity
QVQLVESGGGLVQAGGSLRLSCAASGSTFRCYAMGWYRQAPGKERELVAAISRSGGSTYYADSVKGRFTISRDNAKNTVYLQMNSLKPEDTAVYYCNARSSKRSSRGYDYWGQGTQVTVSS	high polyreactivity
